# How the values were obtained:
# [1] = molecular target: T1, 重组人uPAR蛋白 (recombinant human uPAR protein, uPAR-ECD) (human, UniProt Q03405 23-303, limits assumed); assay: BLI (Fortebio), antibody captured on anti-human IgG Fc sensor, uPAR-ECD at 0.25-1 μM
# T1 construct: extracellular domain; Bought reagent
# [2] = molecular target: 人尿激酶型纤溶酶原激活物受体 (human uPAR) on SW480 cells (human) (UniProt Q03405); assay: flow cytometry on SW480 cells, antibody at 5 μg/ml, FITC goat anti-human IgG
# T1 sequence (Q03405 23-303 limits assumed): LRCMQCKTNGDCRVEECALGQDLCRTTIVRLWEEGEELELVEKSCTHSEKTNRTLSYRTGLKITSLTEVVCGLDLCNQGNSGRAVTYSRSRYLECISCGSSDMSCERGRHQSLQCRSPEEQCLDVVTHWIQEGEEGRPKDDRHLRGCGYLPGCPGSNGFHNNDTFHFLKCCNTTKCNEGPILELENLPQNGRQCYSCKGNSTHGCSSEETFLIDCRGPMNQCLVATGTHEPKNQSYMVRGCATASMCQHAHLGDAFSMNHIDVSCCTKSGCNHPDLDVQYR
Kd [1],koff [1],kon [1],平均荧光强度 [2],阳性率 [2],Binder
7.45 nM,0.000576 s⁻¹,77300 M⁻¹ s⁻¹,,,"ATN615抗体 (monoclonal antibody targeting uPAR) (antibody, V domains shown, Made in the same way as H2BL2 (293F cells, protein A); also called ATN615溶液) VH: GVKLQQSGPEVVKPGASVKISCKASGYSFTNFYIHWVKQRPGQGLEWIGWIFHGSDNTEYNEKFKDKATLTADTSSSTAYMQLSSLTSEDSAVYFCARWGPHWYFDVWGQGTTVTVSS VL: DIVLTQSPDITAASLGQKVTITCSASSSVSYMHWYQQKSGTSPKPWIFEISKLASGVPARFSGSGSGTSYSLTISSMEAEDAAIYYCQQWNYPFTFGGGTKLEIKR"
6.32 nM,0.000454 s⁻¹,71800 M⁻¹ s⁻¹,4.44,99.6%,"H2BL2抗体 (humanized anti-uPAR antibody H2BL2) (antibody, human IgG1, kappa, V domains shown, also called H2BL2溶液) VH: EVQLVQSGAEVKKPGSSVKVSCKASGYTFTDYYIHWVRQAPGQGLEWIGWIFHGSDNTEYNEKFKSKATITADESTSTAYMELSSLRSEDTAVFYCARWGPHWYFDAWGRGTLVTVSS VL: DIQMTQSPSTLSASVGDRVTITCRASSSVSYIHWYQQKPGRAPKPLMYEASSRATGVPSRFSGSGSGTEYTLTISSLQSDDFATYYCQQWNYPFTFGQGTKLEIKR"
